Data reported in US20260166185A1 (Y MABS THERAPEUTICS, published 2026).

Legend:
bio-huCD38 [1] = target: T1, bio-huCD38 (human (hu), UniProt P28907 43-300, biotinylated (bio-), site not stated); experiment: SPR, antigen immobilized, antibody as analyte 25-1.6 nM; estimated from ka and the limit kd
Description: (§1) SPR analysis was performed on a Biocore 8K+, using a CFJB0944 CM5 sensor chip for immobilization and a SPR running buffer 1×HBS-EP+pH 7.4 (Cytiva, cat no. BR100669) according to the manufacturer's instructions.
(§2) In the second part of this example, antigen was immobilized on the chip and antibody dissolved in the SPR running buffer flowed over the chip.

bio-huCD38 [2] = target: T1, bio-huCD38; experiment: SPR, antigen immobilized, antibody as analyte 25-1.6 nM; at the instrument's limit
bio-huCD38 [3] = target: T1, bio-huCD38; experiment: SPR, antigen immobilized, antibody as analyte 25-1.6 nM
Description: as §1, §2

CD38 on Daudi cells = target: T2, CD38 on Daudi cells (UniProt P28907 1-300, limits assumed); experiment: titration binding FACS on Daudi cells
T2 construct: whole, on cells
Description: (§3) Subsequently the EC50 of antibodies samples was determined by titration binding FACS on Daudi cells (for CD38 binding evaluation), on THP-1 cells (for CD33 binding evaluation), on A-431 cells (for EGFR binding evaluation), on MKN-45 cells (for CEACAMS binding evaluation) and on HEK293T (for CD276 binding evaluation). Jurkat E6-1 or HEK293T cell lines were used as negative control, as applicable.

bio-huCD38 [4] = target: T1, bio-huCD38; experiment: SPR, antibody captured on chip, antigen as analyte 200-6.25 nM
Description: as §1
(§4) In the first part of this example the antibody was immobilized on the chip and the antigen dissolved in the SPR running buffer flowed over the chip.

CD276 on HEK293T cells = target: T3, CD276 on HEK293T cells (UniProt Q5ZPR3 29-534, limits assumed); experiment: titration binding FACS on HEK293T cells
T3 construct: whole, on cells
T3 sequence (looked up): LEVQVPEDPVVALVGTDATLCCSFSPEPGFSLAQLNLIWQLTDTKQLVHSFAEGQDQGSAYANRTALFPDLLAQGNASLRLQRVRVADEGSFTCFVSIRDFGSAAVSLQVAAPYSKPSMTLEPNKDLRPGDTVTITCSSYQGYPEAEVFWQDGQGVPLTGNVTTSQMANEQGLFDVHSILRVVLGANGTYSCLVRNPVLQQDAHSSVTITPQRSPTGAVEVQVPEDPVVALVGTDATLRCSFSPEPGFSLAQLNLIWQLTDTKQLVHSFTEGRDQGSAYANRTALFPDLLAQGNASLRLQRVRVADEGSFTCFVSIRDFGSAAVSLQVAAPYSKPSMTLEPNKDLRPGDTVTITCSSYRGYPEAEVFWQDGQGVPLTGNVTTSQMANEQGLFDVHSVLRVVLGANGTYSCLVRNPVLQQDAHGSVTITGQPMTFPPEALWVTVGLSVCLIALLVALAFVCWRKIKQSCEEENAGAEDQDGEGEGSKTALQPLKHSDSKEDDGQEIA
Description: as §3

bio-huCD276 [5] = target: T4, bio-huCD276 (human (hu), UniProt Q5ZPR3 29-461, limits assumed, biotinylated (bio-), site not stated); experiment: SPR, antigen immobilized, antibody as analyte 25-1.6 nM
T4 construct: also called B7-H3
T4 sequence (looked up): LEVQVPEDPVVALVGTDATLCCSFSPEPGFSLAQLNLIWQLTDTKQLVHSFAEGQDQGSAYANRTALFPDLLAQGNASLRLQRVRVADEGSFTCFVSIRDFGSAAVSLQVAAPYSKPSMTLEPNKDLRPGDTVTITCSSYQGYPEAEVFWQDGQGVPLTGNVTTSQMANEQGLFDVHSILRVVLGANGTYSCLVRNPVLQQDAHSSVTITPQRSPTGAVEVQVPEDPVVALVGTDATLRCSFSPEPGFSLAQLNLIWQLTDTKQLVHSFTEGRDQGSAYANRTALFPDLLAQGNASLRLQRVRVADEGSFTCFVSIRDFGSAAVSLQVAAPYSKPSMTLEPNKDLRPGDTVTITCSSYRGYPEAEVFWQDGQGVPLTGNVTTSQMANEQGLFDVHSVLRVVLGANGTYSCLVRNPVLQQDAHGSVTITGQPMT
Description: as §1, §2

bio-huCD276 [6] = target: T4, bio-huCD276; experiment: SPR, antibody captured on chip, antigen as analyte 400-12.5 nM
Description: as §1, §4

Binder | Kd (bio-huCD38 [1]) [nM] | koff (bio-huCD38 [2]) [s⁻¹] | kon (bio-huCD38 [3]) [M⁻¹ s⁻¹] | EC50 (CD38 on Daudi cells) [nM] | Kd (bio-huCD38 [4]) [nM] | koff (bio-huCD38 [4]) [s⁻¹] | kon (bio-huCD38 [4]) [M⁻¹ s⁻¹] | EC50 (CD276 on HEK293T cells) [nM] | Kd (bio-huCD276 [5]) [nM] | koff (bio-huCD276 [5]) [s⁻¹] | kon (bio-huCD276 [5]) [M⁻¹ s⁻¹] | Kd (bio-huCD276 [6]) [nM] | koff (bio-huCD276 [6]) [s⁻¹] | kon (bio-huCD276 [6]) [M⁻¹ s⁻¹]
CD38 (Bivalent)-DOTA(Fab)-dp53 (bispecific antibody, No tetramerization domain; also called YM00005; molecule 4) light: DVQLQESGGGLVQAGGSLRLSCTGSGRTFRNYPMAWFRQAPGKEREFVAGITWVGASTLYADFAKGRFTISRDNAKNTVYLQMNSLKPEDTAVYSCAAGRGIVAGRIPAEYADWGQGTQVTVSSGGGGSGGGGSGGGGSGGGGGSQAVVIQESALTTPPGETVTLTCGSSTGAVTASNYANWVQEKPDHLFTGLIGGHNNRPPGVPARFSGSLIGDKAALTIAGTQTEDEAIYFCALWYSDHWVIGGGTRLTVLGQPKANPTVTLFPPSSEELQANKATLVCLISDFYPGAVTVAWKADGSPVKAGVETTKPSKQSNNKYAASSYLSLTPEQWKSHRSYSCQVTHEGSTVEKTVAPTECS heavy: DVQLQESGGGLVQAGGSLRLSCTGSGRTFRNYPMAWFRQAPGKEREFVAGITWVGASTLYADFAKGRFTISRDNAKNTVYLQMNSLKPEDTAVYSCAAGRGIVAGRIPAEYADWGQGTQVTVSSGGGGSGGGGSGGGGSGGGGGSHVKLQESGPGLVQPSQSLSLTCTVSGFSLTDYGVHWVRQSPGKGLEWLGVIWSGGGTAYNTALISRLNIYRDNSKNQVFLEMNSLQAEDTAMYYCARRGSYPYNYFDAWGRGTTVTVSSASTKGPSVFPLAPSSKSTSGGTAALGCLVKDYFPEPVTVSWNSGALTSGVHTFPAVLQSSGLYSLSSVVTVPSSSLGTQTYICNVNHKPSNTKVDKKVEPKSCG | < 0.000309 | < 1e-07 | 324000 | 0.32 | 25.1 | 0.00112 | 44700 |  |  |  |  |  |  | 
CD276-DOTA(fab)-p53 (bispecific antibody, Tetramerizes through p53 depending on concentration; also called YM00012; molecule 11) light: DVQLVESGGGLVQPGGSLRLSCAASGFTFSRYWMGWFRQAPGKGVEWVSTINSGGGSTYYADSVKGRFTISRDNAKNTLYLQLNNLKTEDTAMYYCAKEQWRTGSRGQGTQVTVSSSGGGGSGGGGSGGGGSGGGGSQAVVIQESALTTPPGETVTLTCGSSTGAVTASNYANWVQEKPDHLFTGLIGGHNNRPPGVPARFSGSLIGDKAALTIAGTQTEDEAIYFCALWYSDHWVIGGGTRLTVLGQPKANPTVTLFPPSSEELQANKATLVCLISDFYPGAVTVAWKADGSPVKAGVETTKPSKQSNNKYAASSYLSLTPEQWKSHRSYSCQVTHEGSTVEKTVAPTECS heavy: HVKLQESGPGLVQPSQSLSLTCTVSGFSLTDYGVHWVRQSPGKGLEWLGVIWSGGGTAYNTALISRLNIYRDNSKNQVFLEMNSLQAEDTAMYYCARRGSYPYNYFDAWGRGTTVTVSSASTKGPSVFPLAPSSKSTSGGTAALGCLVKDYFPEPVTVSWNSGALTSGVHTFPAVLQSSGLYSLSSVVTVPSSSLGTQTYICNVNHKPSNTKVDKKVEPKSCGGGGSGGGGSKPLDGEYFTLQIRGRERFEMFRELNEALELKDAQAGKEPGGS |  |  |  |  |  |  |  | 2.14 | 2.5 | 2.26e-05 | 9050 | 40.1 | 0.00456 | 114000
